In the supplement of paper PMC11908140:

B1: library; numbered along this chain (parent)
chain: MRKPRAAVGSGHRKQAASQEGRQKHAKNNSQAKPSACDGLARQPEEVVLQASVSSYHLFRDVAEVTAFRGSLLSWYDQEKRDLPWRRRAEDEMDLDRRAYAVWVSEVMLQQTQVATVINYYTGWMQKWPTLQDLASASLEEVNQLWAGLGYYSRGRRLQEGARKVVEELGGHMPRTAETLQQLLPGVGRYTAGAIASIAFGQATGVVDGNVARVLCRVRAIGADPSSTLVSQQLWGLAQQLVDPARPGDFNQAAMELGATVCTPQRPLCSQCPVESLCRARQRVEQEQLLASGSLSGSPDVEECAPNTGQCHLCLPPSEPWDQTLGVVNFPRKASRKPPREESSATCVLEQPGALGAQILLVQRPNSGLLAGLWEFPSVTWEPSEQLQRKALLQELQRWAGPLPATHLRHLGEVVHTFSHIKLTYQVYGLALEGQTPVTTVPPGARWLTQEEFHTAAVSTAMKKVFRVYQGQQPGTCMGSKRSQVSSPCSRKKPRMGQQVLDNFFRSHISTDAHSLNSAAQ

Variants of: B1
Experiment: 8OG:A repair function score (normalized; synonymous = 0, nonsense = -1) (normalized log-likelihood score); higher = more repair activity (WT-like)
Conditions: with 8OG:A DNA repair reporter (GFP) in HEK-293 MUTYH KO cells
Procedure: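 Saturation mutagenesis (NNN codon scan) of the MUTYH cDNA (521-aa nuclear isoform NM_001048174.1 / NP_001041639), stably expressed under doxycycline induction in HEK-293 MUTYH knockout cells. Cells were co-transfected with an 8OG:A-bearing GFP repair reporter plus mCherry and sorted 72 h later into GFP+ and GFP− bins, three replicates per tile. The Rosace log2 enrichment (GFP+ vs GFP−) was converted per tile to a normalized function score with synonymous variants centered at 0 and nonsense variants (codons 1-471) at -1; low-abundance variants were removed.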

8OG:A repair function score, by site and new letter:
V102: E -1.11 | A -0.644 | D -0.89 | S -0.376 | K -1.71 | Y -1.01 | R -1.41 | Q -0.275 | H -2.8 | N -1.28 | I -0.00401 | M -0.352 | T -0.0943 | C -0.092 | G -1.36 | L -0.259 | W -1.13 | P -1.21 | F -0.714
S105: N -0.802 | Q -0.69 | G -0.13 | L -0.798 | K -1.25 | E -0.676 | A -0.0215 | F -1.43 | H -0.786 | C -0.577 | D -0.841 | Y -1.24 | M -0.981 | V -0.566 | W -0.677 | T -0.804 | R -0.765 | P -0.822 | I -0.549
V107: T -0.0133 | C -0.0803 | Y -0.533 | G -0.0408 | H -0.608 | F -0.314 | N -0.735 | M 0.0622 | E -0.669 | I 0.0887 | L -0.266 | P -1.01 | D -1.44 | W -0.894 | R -0.87 | Q -0.746 | K -0.731 | A 0.0286 | S -0.135
A115: H 0.0405 | R 0.092 | M -0.164 | D -0.0868 | N 0.178 | Q -0.0206 | G -0.0228 | C -0.0964 | F -0.146 | L -0.0647 | Y -0.206 | K -0.0104 | E 0.0471 | W -0.182 | V 0.00984 | S -0.0518 | I -0.0495 | P -0.0424 | T -0.106
A101: F -0.00851 | G -0.024 | V -0.0177 | E -0.00955 | Q -1.09 | H -0.0529 | Y -0.0479 | I -0.0179 | T -0.047 | M -0.0323 | S 0.00626 | K -0.0477 | R -0.0207 | P -0.398 | N -0.0446 | L -0.0936 | W -0.762 | D -0.0136 | C -0.00146
W103: K -1.37 | M -0.283 | Y -0.166 | F -0.399 | Q -0.686 | C -0.655 | D -1.19 | I -1.17 | T -0.833 | G -0.73 | A -0.808 | P -1.09 | S -1.14 | H -0.97 | R -1.22 | N -1.2 | E -1.13 | L -0.377 | V -0.986
V104: S -0.759 | P -1.01 | T -0.472 | M -0.192 | N -1.04 | K -0.731 | R -1.11 | W -0.707 | Y -1.27 | E -0.936 | G -0.976 | H -1.31 | Q -1.17 | L -0.583 | D -1.33 | A -0.365 | F -1.1 | I -0.19 | C -0.133
Y100: M -1.24 | T -1.56 | V -1.41 | N -1.17 | P -2.33 | Q -1.23 | S -1.56 | R -1.63
T112: H -0.634 | F -1.17 | A -1.03 | C -0.907 | N -0.879 | S -0.314 | E -0.925 | I -1.18 | D -1.3 | M -1.06 | W -1.35 | R -0.922 | Q -0.591 | K -1.01 | V -0.914 | Y -1.19 | P -1.38 | G -0.908 | L -1.42
I118: K -0.483 | A -0.0372 | L -0.0284 | D -0.182 | P -0.112 | F -0.3 | H 0.000662 | C 0.0146 | E -0.0341 | G -0.107 | N -0.0549 | M -0.277
Q111: E -1.24 | K -0.553 | N -0.242 | H -0.591 | Y -1.17 | F -1.08 | C -0.764 | M -1.12 | R -0.248 | S -0.201 | A -0.258 | T -0.764 | I -1.18 | L -0.931 | G -0.557 | W -0.869 | P -1.13 | V -0.38 | D -0.941
E106: T -1.01 | K -1.45 | Q -1.51 | G -1.3 | V -1.33 | S -1.21 | Y -1.24 | I -1.13 | F -0.995 | H -1.74 | D -0.903 | A -0.944 | P -1.62 | L -1.25 | C -1.19 | M -0.994 | N -1.72 | W -1.04 | R -1.42
T116: A -0.122 | F -0.000589 | L 0.023 | M -0.441 | H 0.0217 | K 0.113 | E -0.305 | W -0.0903 | V -0.0225 | I -0.262 | R 0.0298 | S -0.0572 | N -0.15 | P -0.326 | G -0.179 | C -0.0685 | D -1.03 | Q -0.21 | Y -0.0318
M108: N -1.18 | I -0.761 | Q -0.453 | T -0.981 | P -1.2 | R -1.2 | D -0.793 | G -1.18 | H -1.36 | Y -0.819 | K -1.01 | E -0.887 | W -1.11 | C -0.99 | F -0.641 | A -1.06 | S -1.28 | L -0.662 | V -1.11
Q113: L -0.239 | V -0.43 | E -0.529 | G -0.109 | R 0.032 | K -0.158 | I -0.279 | S -0.0696 | H -0.405 | F -0.237 | W -0.172 | M -0.593 | A -0.108 | N -0.167 | T 0.157 | C -0.133 | P -0.116 | Y 0.0661 | D -0.327
L109: S -0.213 | E -1.07 | D -1.16 | Y -1.24 | K -0.951 | V -0.838 | Q -0.022 | R -1.05 | W -0.957 | H -0.619 | C -0.0119 | M -0.105 | A 0.00548 | I -1.04 | P -1 | F -0.916 | T -0.266 | G -0.659 | N -0.45
V117: Q -1.26 | P -1.02 | H -1.24 | A 0.0474 | T 0.0387 | Y -1.28 | L -0.727 | I -0.166 | D -1 | E -0.683 | F -1.21 | C 0.0468 | M -0.226 | S -0.427 | W -0.737 | K -1.84 | N -1.21 | R -1.16 | G -0.408
Q110: R -0.82 | P -0.29 | S -1.26 | C -0.75 | F -1.24 | V 0.0461 | L -0.353 | G 0.0252 | H -0.0864 | A -2.51
V114: W -0.527 | M -1.07 | P -1.09 | F -0.42 | G -0.449 | S -0.184 | L -0.441 | N -0.367 | D -0.453 | Y -0.241 | A 0.0344 | R -0.297 | K -0.435 | E -0.932 | Q -0.313 | C -0.178 | H -0.935 | T -0.141 | I -0.181
